Laboratory results published in the nanobody polyreactivity screen of Harvey et al. (2022).

Experiment: yeast display, Sf9 membrane polyspecificity reagent, FACS + sequencing; frameworks hold sequencing errors
Summary of the method: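 After 36–48 hours of galactose induction, yeast (Saccharomyces cerevisiae BJ5465) displaying a synthetic nanobody library were stained at 4 °C for 1 hour with 10% biotinylated, detergent-solubilized Sf9 membrane reagent. Streptavidin microbeads enriched the stained cells before FACS sorting into low and high (top ~1%) gates on anti-HA and streptavidin fluorescence. Each clone's polyreactivity label reflects its gate of origin.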

Row | Sequence | polyreactivity (PSR sort gate)
1 | QVQLVESGGGLVQAGGSLRLSCAASGRIFGRYAMGWYRPAPGKERELVAAITYRTGRTYYADSVKGRFTISRDNAKNTVYLQMNSLKPEDTAVYYCDAESTSDPIDFEYWGQGTQVTVSS | low polyreactivity
2 | QVQLVESGGGLVQAGGSLRLSCAASGRIFGRYAMGWYRQAPGKDRELVAAISSRGSRTYYADSVKGRFTISRDNAKNTVYLQMNSLKPEVTAVYYCAASWLSYPSDYDYWGQGTQVTVSS | high polyreactivity
3 | QVQLVESGGGLVQAGGSLRLSCAASGRIFGRYAMGWYRQAPGKEREFVAAISKRGGGTYYADSVKGRFTISRDNAKNTVYLQMNSLKPEDTAVYYCAVDNSPGFDDYDYWGQGTQVTVSS | high polyreactivity
4 | QVQLVESGGGLVQAGGSLRLSCAASGRIFGRYAMGWYRQAPGKERELVAVISSGGSTYYADSVKGRFTISRDNAKNTVYLQMNSLKPDDTAVYYCAAVIRGGYDYWGQGTQVTVSS | low polyreactivity
5 | QVQLVESGGGLVQAGGSLRLSCAASGRIFGRYAMGWYRQAPGTERELVAAITSGGRTSYADSVKGRFTISRDNAKNTVDLQMNSLKPEDTAVYYCNVVSRNSIRFDYWGQGTQVTVSS | high polyreactivity
6 | QVQLVESGGGLVQAGGSLRLSCAASGRIFGSYAMGWYRPAPGKERELVAGIRSVGSTNYADSVKGRFTISRDNAKNTVYLQMNSLKPEDTAVYYCAARLWHLSYAGQGGDYWGQGTQVTVSS | low polyreactivity
7 | QVQLVESGGGLVQAGGSLRLSCAASGRIFGSYAMGWYRQAPGKERELVAAISWNGGSRYYADSVKGRFTISRDNAKNTVYLQMNSLKPEDTAVYYCAVVYRAYRSTAYLYGYWGQGTQVTVSS | high polyreactivity
8 | QVQLVESGGGLVQAGGSLRLSCAASGRIFGSYAMGWYRQAPGKERELVAAITRGGSTNYADSVKGRFTISRDNAKNTVYFQMNSLKPEDTAVYYCARWVGLHYPYYYWGQGTQVTVSS | high polyreactivity
9 | QVQLVESGGGLVQAGGSLRLSCAASGRIFGSYAMGWYRQAPGKERELVAAITTVGITYYADSVKGRFTISRDNAKNTVYLQMNSLKPEDTADYYCAAEYFDYPYWYDYWGQGTQVTVSS | high polyreactivity
10 | QVQLVESGGGLVQAGGSLRLSCAASGRIFGSYAMGWYRQAPGKERELVAGIRSVGSTNYADSVKGRFTISRDNAKNTVYFQINSLKPEDTAVYYCAARLWHLSYAGQGGDYWGHGTQVTVSS | low polyreactivity
11 | QVQLVESGGGLVQAGGSLRLSCAASGRIFGSYAMVWYRQVPGKERELVAASNWRGGSTFYADSVKGRFTISRDIAKNTVFLQMNSLKPDDNAVYYCSRRVYPQSCDNWGQGTQLTVSS | low polyreactivity
12 | QVQLVESGGGLVQAGGSLRLSCAASGRIFGTNDMGWYRQAPGKETELVAAIRATSGSTYYADSVKGRFTISRDNAKNTVYLQMNSLKPEDTAVYYCAAEIWRYNSYIKYWHRLDYWGQGTQVTVSS | high polyreactivity
13 | QVQLVESGGGLVQAGGSLRLSCAASGRIFGVNAMGWYRQAPGKERELVAAIFSGGSTYYADSVKGRFTISRDNAKNTVYLQMNSLKPEDTAGYYCAARFARYDWSMYYWGQGTQVTVSS | low polyreactivity
14 | QVQLVESGGGLVQAGGSLRLSCAASGRIFGVNAMGWYRQAPGKERELVAAIFSGGSTYYADSVKGRFTISRDTAKNTVYLQMNSLKPEDTAVYYCAARFARYDWSMYYWGQGTQVTVSS | low polyreactivity
15 | QVQLVESGGGLVQAGGSLRLSCAASGRIFGVNAMGWYRQAPGKERELVAAINYSGGRTSYADSVKGRFTISRDHAKNTVYLQMNSLKPEDTAVYYCAKYGLRGGYLYYYWGQGTQVTVSS | high polyreactivity
16 | QVQLVESGGGLVQAGGSLRLSCAASGRIFGVNAMGWYRQAPGKERELVAAITSSGGSTYYADSVKGRFTISRDHAKNTVYLQMNSLKPEDTAVYYCAAKYWYGKPYGSYGYWGQGTQVTVSS | high polyreactivity
17 | QVQLVESGGGLVQAGGSLRLSCAASGRIFGVNAMGWYRQAPGKERELVAAITWSGGRTYYADSVKGRFTISRDNAKNTVFLLMNSMKQEDTAVYYCNTGLSGRRYGFGLSFCMDYWGQGTQVTVSS | low polyreactivity
18 | QVQLVESGGGLVQAGGSLRLSCAASGRIFGVNVMGWYRQAPGKERELVAGINSSGGSTYYADSVKGRFTISRDNAKNTVYLQMNSLKPEDTAVYYCDVRSIWRYGYWGQGTQVTVSS | high polyreactivity
19 | QVQLVESGGGLVQAGGSLRLSCAASGRIFGVYAMGWYRQAPGKERELVAAITRRGGTTYYADSVKGRFTISRDNAKNTVYLQMNSLKPEDTAVYYCAAVFVTQSFIYDYYYWGQGTQVTVSS | high polyreactivity
20 | QVQLVESGGGLVQAGGSLRLSCAASGRIFGVYAMGWYRQAPGKERELVAAITSSGGRTYYADSVKGRFTISRDNAKNTVYLQMNSLKPEDTAVYYCAALGLSRRGKFNYWGQGTQVTVSS | high polyreactivity
21 | QVQLVESGGGLVQAGGSLRLSCAASGRIFGVYAMGWYRQAPGKERELVAAIYSGSSTYYADSVKGRFTISRDNAKNTVYLQMNSLKPEDTAVYYCAAVSRDDNYHDYYYWGQGTQVTVSS | low polyreactivity
22 | QVQLVESGGGLVQAGGSLRLSCAASGRIFGVYAMGWYRQAPGKERELVASISDGTITNYADSVKGRFTISRDNAKNTVYLQMNSLKPEDTAVYYCAATWSFVYGDYFEYDYWGQGTQVTVSS | low polyreactivity

Row | Sequence | polyreactivity (PSR sort gate)
23 | QVQLVESGGGLVQAGGSLRLSCAASGRIFGVYAMGWYRQAPGKERELVASITWRGGSTYYADSVKGRFTISRDNAKNTVYLQMNSLKPEDTAVYYCAAAYWYAYEYWGQGTQVTVSS | high polyreactivity
24 | QVQLVESGGGLVQAGGSLRLSCAASGRIFGVYAMGWYRQAPGKERELVAVINGRGSRTYYADSVKGRFTISRDNAKNTVYLQMNSLKPEDTAVYYCAAGYPDSEYDYWGQGTQVTVSS | high polyreactivity
25 | QVQLVESGGGLVQAGGSLRLSCAASGRIFGWNAMGWYRQPPGKERELVAAISADGNTYYADSVKGRFTISRDNAKNTVYLQMNSLKPEDTAVYYCNAYVYSGYSIRDYWGQGTQVTVSS | high polyreactivity
26 | QVQLVESGGGLVQAGGSLRLSCAASGRIFGWYAMGWYRQAPGKERELVAAISSADSTNYADSVKGRFTIARDNAKNTVYLQMNSLKPEDTAVYYCNAEGLPGNVVYGYYYWGQGTQLTVSS | low polyreactivity
27 | QVQLVESGGGLVQAGGSLRLSCAASGRIFGWYAMGWYRQAPGKERELVATIRKSGGRTYYADSVKGRFTLSRDNAKNTVYFQMNSLKQEDTAVYYCAAENTAAGQGLWGEDYWGQGTQVTVSS | high polyreactivity
28 | QVQLVESGGGLVQAGGSLRLSCAASGRIFGWYSMGWYRQAPGKERELVAAISSNGGSTYYADSVKGRFTISRDNAKNTVYLQMNSLKPEDTAVYFCAAVRVFQYKYDRFNYWGQGTQVTVSS | high polyreactivity
29 | QVQLVESGGGLVQAGGSLRLSCAASGRIFGYNAMGWYRPAPGNERELVAAISWSGGNTYYADSVKGRFTISRDHAKNTVYLQMNSLKPEDTAVYYCNASPYRYRPSEYDYWGQGTQVTVSS | high polyreactivity
30 | QVQLVESGGGLVQAGGSLRLSCAASGRIFGYNAMGWYRQAPGKERELVAAINSDGSKNYADSVKGRFTISRDNAKNTVYLQMNSLKPEDTAVYYCAADGHVGPLGVSFDSWGQGSQVTVSS | low polyreactivity
31 | QVQLVESGGGLVQAGGSLRLSCAASGRIFGYNAMGWYRQAPGKERELVAAITTSGGSTYYADSVKGRFTISRDNAKNTVYLQMNSLKPEVTAVYYCAGDSLQVFYPYASDDYWGHGTQVTVSS | low polyreactivity
32 | QVQLVESGGGLVQAGGSLRLSCAASGRIFGYNAMGWYRQAPGKERELVASIRSGGSTNYADSVKGRFTISRDNAKNTVYLQMNSLKPEDTAVYYCAKSYRWHLNGGLGWRLGNYWGQGTQVTVSS | high polyreactivity
33 | QVQLVESGGGLVQAGGSLRLSCAASGRIFGYNAMGWYRQAPGKERELVASITRGGSTNYADSVKGRFTISRDNAKNTVYLQMNSLKPEDTAVYYCATRWPHYGGYYYWGQGTQVTVSS | high polyreactivity
34 | QVQLVESGGGLVQAGGSLRLSCAASGRIFGYNAMGWYRQATGKERELVAGITRNDGSTYYADSVKGRFTISRDNAKNTVYLLMNSLKPEDTAVYYCYRYLHLAGSWGQGTQVTVSS | low polyreactivity
35 | QVQLVESGGGLVQAGGSLRLSCAASGRIFGYNPMGWYRQAPGKERELVAAITTSGGSTYYADSVKGRFTISRDNAKNTVYLQMNSQKPEDTAVYYCARDSLQVFYPYASDDYWGQGTQVTVSS | low polyreactivity
36 | QVQLVESGGGLVQAGGSLRLSCAASGRIFGYYAMGWFRQAPGKERELVATITFGGGSTYYADSVKGRFTISRDNAKNTVYLQMNSPKPEDTAVYYCAADSGYLGIYGDEYSWGQGTQVTVSS | low polyreactivity
37 | QVQLVESGGGLVQAGGSLRLSCAASGRIFGYYAMGWSRQAPGKEWELVAAISSGGRTYYADSVKGRFTISRDNAKNTVYLQMNSLKPEDTAVYYCAARSRVPPAGPRYDYWGQGTQVTVSS | high polyreactivity
38 | QVQLVESGGGLVQAGGSLRLSCAASGRIFGYYAMGWYRQAPGKERELVAAISSGGNTNYADSVKGRFTISRDNAKNTVYLQMYSLKPEDTAVFYCAAYHFSFGWIRVDYWGQGTQVTVSS | high polyreactivity
39 | QVQLVESGGGLVQAGGSLRLSCAASGRIFGYYAMGWYRQAPGKERELVAAISWSGGRTYYADSVKGRFTISRDNAKNTVYLQMNSLKPEDTAVYYCNKVYRVPITEEYDYWGQGTQVTVSS | high polyreactivity
40 | QVQLVESGGGLVQAGGSLRLSCAASGRIFGYYAMGWYRQAPGKERELVAAITRNGGSTYYADSVKGRFTISRDNAKNTVYLQMNSLKPEDTAVYYCAATKGGGRGYWGQGTQVTVSS | high polyreactivity
41 | QVQLVESGGGLVQAGGSLRLSCAASGRIFGYYAMGWYRQAPGKERELVASIRRGTRTNYADSVKGRFTISRDNAKNTVYLQMNSLKPEDTAVYYCAATRFQFTTTPWYDYWGQGTQVTVSS | high polyreactivity
42 | QVQLVESGGGLVQAGGSLRLSCAASGRIFGYYAMGWYRQAPGKERELVAVISWSGGSTYYADSVKGRFTISRDNAMNTVYLQMNSLKPEDSAVYYCAAERLYSIYDYWGQGTQVTVSS | high polyreactivity
43 | QVQLVESGGGLVQAGGSLRLSCAASGRIFGYYARGWYRQAPGKEREFVAGITQRTDSTYYADSVKGRFTISRDNAKNTVYLQMNSLKPEDTAVYFCAARGYGGYHWGYYWGQGTQVTVSS | high polyreactivity
